Test results: publication PMC8833195

Assays:
Assay in all cases: SEC
[1] = biological target: repaired and stabilized HA of H3N2 A/Brisbane/10/2007 (P194L in HA1) (influenza A virus H3N2 A/Brisbane/10/2007)
[2] = biological target: HA ectodomain of H1N1 A/California/07/2009 with K51I + E103I (influenza A virus H1N1 A/California/07/2009)
[3] = biological target: repaired and stabilized HA of H3N2 A/Singapore/INFIMH/16/0019/2016 (P194L in HA1) (influenza A virus H3N2 A/Singapore/INFIMH/16/0019/2016)

Substance: repaired and stabilized HA of H3N2 A/Brisbane/10/2007 (P194L in HA1) (domain or fragment)
- stoichiometry N [1]: 3

Substance: HA ectodomain of H1N1 A/California/07/2009 with K51I + E103I (domain or fragment)
- stoichiometry N [2]: 3

Substance: repaired and stabilized HA of H3N2 A/Singapore/INFIMH/16/0019/2016 (P194L in HA1) (domain or fragment)
- stoichiometry N [3]: 3
